The values below come from patent US20120316071A1 (published 2012).

The chains are these.
B1: Fab VH1-46_IGHD6-6*01_IGHJ1*01 S102A/S103P/S104F/H111F (APFF) & L6_IGKJ1*01 (Fab, V domains shown)
VH: QVQLVQSGAEVKKPGASVKVSCKASGYTFTSYYMHWVRQAPGQGLEWMGIINPSGGSTSYAQKFQGRVTMTRDTSTSTVYMELSSLRSEDTAVYYCAREEYAPFSAEYFQFWGQGTLVTVSS
VL: not shown
notes: Fab made in E. coli; The constant parts (CH1 with His6 and Flag tags from plasmid A, kappa CL from plasmid C) are not added here; also called H:APFF & L:wt; APFF & parent
B2: Fab VH1-46_IGHD6-6*01_IGHJ1*01 S102A/S103P/S104F/H111F (APFF) & L6_IGKJ1*01 S31E (Fab, V domains shown)
VH: QVQLVQSGAEVKKPGASVKVSCKASGYTFTSYYMHWVRQAPGQGLEWMGIINPSGGSTSYAQKFQGRVTMTRDTSTSTVYMELSSLRSEDTAVYYCAREEYAPFSAEYFQFWGQGTLVTVSS
VL: EIVLTQSPATLSLSPGERATLSCRASQSVSEYLAWYQQKPGQAPRLLIYDASNRATGIPARFSGSGSGTDFTLTISSLEPEDFAVYYCQQRSNWPPWTFGQGTKVEIKR
notes: Fab made in E. coli; The constant parts (CH1 with His6 and Flag tags from plasmid A, kappa CL from plasmid C) are not added here; also called APFF & S31E
B3: Fab VH1-46_IGHD6-6*01_IGHJ1*01 S102A/S103P/S104F/H111F (APFF) & L6_IGKJ1*01 S31N (Fab, V domains shown)
VH: QVQLVQSGAEVKKPGASVKVSCKASGYTFTSYYMHWVRQAPGQGLEWMGIINPSGGSTSYAQKFQGRVTMTRDTSTSTVYMELSSLRSEDTAVYYCAREEYAPFSAEYFQFWGQGTLVTVSS
VL: EIVLTQSPATLSLSPGERATLSCRASQSVSNYLAWYQQKPGQAPRLLIYDASNRATGIPARFSGSGSGTDFTLTISSLEPEDFAVYYCQQRSNWPPWTFGQGTKVEIKR
notes: Fab made in E. coli; The constant parts (CH1 with His6 and Flag tags from plasmid A, kappa CL from plasmid C) are not added here; also called APFF & S31N
B4: Fab VH1-46_IGHD6-6*01_IGHJ1*01 S102A/S103P/S104F/H111F (APFF) & L6_IGKJ1*01 S31M (Fab, V domains shown)
VH: QVQLVQSGAEVKKPGASVKVSCKASGYTFTSYYMHWVRQAPGQGLEWMGIINPSGGSTSYAQKFQGRVTMTRDTSTSTVYMELSSLRSEDTAVYYCAREEYAPFSAEYFQFWGQGTLVTVSS
VL: EIVLTQSPATLSLSPGERATLSCRASQSVSMYLAWYQQKPGQAPRLLIYDASNRATGIPARFSGSGSGTDFTLTISSLEPEDFAVYYCQQRSNWPPWTFGQGTKVEIKR
notes: Fab made in E. coli; The constant parts (CH1 with His6 and Flag tags from plasmid A, kappa CL from plasmid C) are not added here; also called APFF & S31M
B5: Fab VH1-46_IGHD6-6*01_IGHJ1*01 S102A/S103P/S104F/H111F (APFF) & L6_IGKJ1*01 S31I (Fab, V domains shown)
VH: QVQLVQSGAEVKKPGASVKVSCKASGYTFTSYYMHWVRQAPGQGLEWMGIINPSGGSTSYAQKFQGRVTMTRDTSTSTVYMELSSLRSEDTAVYYCAREEYAPFSAEYFQFWGQGTLVTVSS
VL: EIVLTQSPATLSLSPGERATLSCRASQSVSIYLAWYQQKPGQAPRLLIYDASNRATGIPARFSGSGSGTDFTLTISSLEPEDFAVYYCQQRSNWPPWTFGQGTKVEIKR
notes: Fab made in E. coli; The constant parts (CH1 with His6 and Flag tags from plasmid A, kappa CL from plasmid C) are not added here; also called APFF & S31I
B6: Fab VH1-46_IGHD6-6*01_IGHJ1*01 S102A/S103P/S104F/H111F (APFF) & L6_IGKJ1*01 S30Q (Fab, V domains shown)
VH: QVQLVQSGAEVKKPGASVKVSCKASGYTFTSYYMHWVRQAPGQGLEWMGIINPSGGSTSYAQKFQGRVTMTRDTSTSTVYMELSSLRSEDTAVYYCAREEYAPFSAEYFQFWGQGTLVTVSS
VL: EIVLTQSPATLSLSPGERATLSCRASQSVQSYLAWYQQKPGQAPRLLIYDASNRATGIPARFSGSGSGTDFTLTISSLEPEDFAVYYCQQRSNWPPWTFGQGTKVEIKR
notes: Fab made in E. coli; The constant parts (CH1 with His6 and Flag tags from plasmid A, kappa CL from plasmid C) are not added here; also called APFF & S30Q
B7: Fab VH1-46_IGHD6-6*01_IGHJ1*01 S102A/S103P/S104F/H111F (APFF) & L6_IGKJ1*01 S31L (Fab, V domains shown)
VH: QVQLVQSGAEVKKPGASVKVSCKASGYTFTSYYMHWVRQAPGQGLEWMGIINPSGGSTSYAQKFQGRVTMTRDTSTSTVYMELSSLRSEDTAVYYCAREEYAPFSAEYFQFWGQGTLVTVSS
VL: EIVLTQSPATLSLSPGERATLSCRASQSVSLYLAWYQQKPGQAPRLLIYDASNRATGIPARFSGSGSGTDFTLTISSLEPEDFAVYYCQQRSNWPPWTFGQGTKVEIKR
notes: Fab made in E. coli; The constant parts (CH1 with His6 and Flag tags from plasmid A, kappa CL from plasmid C) are not added here; also called APFF & S31L
B8: Fab VH1-46_IGHD6-6*01_IGHJ1*01 S102A/S103P/S104F/H111F (APFF) & L6_IGKJ1*01 S30A (Fab, V domains shown)
VH: QVQLVQSGAEVKKPGASVKVSCKASGYTFTSYYMHWVRQAPGQGLEWMGIINPSGGSTSYAQKFQGRVTMTRDTSTSTVYMELSSLRSEDTAVYYCAREEYAPFSAEYFQFWGQGTLVTVSS
VL: EIVLTQSPATLSLSPGERATLSCRASQSVASYLAWYQQKPGQAPRLLIYDASNRATGIPARFSGSGSGTDFTLTISSLEPEDFAVYYCQQRSNWPPWTFGQGTKVEIKR
notes: Fab made in E. coli; The constant parts (CH1 with His6 and Flag tags from plasmid A, kappa CL from plasmid C) are not added here; also called APFF & S30A
B9: Fab VH1-46_IGHD6-6*01_IGHJ1*01 S102A/S103P/S104F/H111F (APFF) & L6_IGKJ1*01 S30V (Fab, V domains shown)
VH: QVQLVQSGAEVKKPGASVKVSCKASGYTFTSYYMHWVRQAPGQGLEWMGIINPSGGSTSYAQKFQGRVTMTRDTSTSTVYMELSSLRSEDTAVYYCAREEYAPFSAEYFQFWGQGTLVTVSS
VL: EIVLTQSPATLSLSPGERATLSCRASQSVVSYLAWYQQKPGQAPRLLIYDASNRATGIPARFSGSGSGTDFTLTISSLEPEDFAVYYCQQRSNWPPWTFGQGTKVEIKR
notes: Fab made in E. coli; The constant parts (CH1 with His6 and Flag tags from plasmid A, kappa CL from plasmid C) are not added here; also called APFF & S30V
B10: Fab VH1-46_IGHD6-6*01_IGHJ1*01 S102A/S103P/S104F/H111F (APFF) & L6_IGKJ1*01 S30N (Fab, V domains shown)
VH: QVQLVQSGAEVKKPGASVKVSCKASGYTFTSYYMHWVRQAPGQGLEWMGIINPSGGSTSYAQKFQGRVTMTRDTSTSTVYMELSSLRSEDTAVYYCAREEYAPFSAEYFQFWGQGTLVTVSS
VL: EIVLTQSPATLSLSPGERATLSCRASQSVNSYLAWYQQKPGQAPRLLIYDASNRATGIPARFSGSGSGTDFTLTISSLEPEDFAVYYCQQRSNWPPWTFGQGTKVEIKR
notes: Fab made in E. coli; The constant parts (CH1 with His6 and Flag tags from plasmid A, kappa CL from plasmid C) are not added here; also called APFF & S30N

For the experiment, the target named is T1, Recombinant Human DLL4 (delta-like protein 4) (human, UniProt Q9NR61 27-524).
T1 construct: Bought recombinant human DLL4 (R&D Systems Cat#1506-D4/CF); also called rHuman DLL4
The experiment can be described thus: ECL (MSD) multispot binding assay, antigen spotted on plate, Fab in solution.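 Note: purified Fab incubated 1 h at 20 °C, detected via TAG-labelled antibody electrochemiluminescence, antigen spot compared with the blank in the same well, ratio at least 4 counted as hit.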
Consider B1, for which the Signal/Blank amounted to 389.
For B2, the “ECL signal” value amounted to 171000 and the Signal/Blank was determined as 517.
Turning to B3, the “ECL signal” value is 178000 and the Signal/Blank is 605.
Take B4: the Signal/Blank came to 378.
Still for that read-out and setting: the figure for B5 is 541.
Take B6: the “ECL signal” value was determined as 197000 and the Signal/Blank turned out to be 602.
With B7, the Signal/Blank came out at 373.
Regarding B8, the “ECL signal” value is 187000 and the Signal/Blank is 1010.
For B9, the “ECL signal” value is 141000 and the Signal/Blank is 497.
B10: the “ECL signal” value was 175000 and the Signal/Blank is 497.
